Experimental data as given in the DeepSol protein solubility set.

assay: soluble on expression in E. coli; label from the status in PepcDB or PDB records

| Sequence | soluble on expression in E. coli |
| --- | --- |
| MEMNVAAPAAAVAGAAAPQPGQNQTGSSYTMASLYVGDLHPDVNESILFEKFSAAGPVLSIRVCRDNATRLSLGYAYVNFQQPADAERAMDTMNFEALHGKPMRIMWSQRDPAMRRSGAGNIFIKNLDKVIDNKSIYDTFSLFGNILSCKVAIDEDGFSKGYGFVHFETEEAAQNAIQKVNGMLLAGKKVFVGKFQPRAQRNRELGETAKQFTNVYVKNFGDHYNKETLEKLFAKFGNITSCEVMTVEGKSKGFGFVAFANPEEAETAVQALHDSTIEGTDLKLHVCRAQKKSERHAELKKKHEQHKAERMQKYQGVNLYVKNLDETVDDDGLKKQFESYGNITSAKVMTDENGRSKGFGFVCFEKPEEATSAVTEMNSKMVCSKPLYVAIAQRKEDRRAQLASQYMQRLASMRMHGNVPGAAMYNPTQPGPGYYVANPMQQQRNFAGGQQMVRPGGRWGMQNQYPVQNQYMMAQGPGVYQNRMGRPQNQQGGPRGPPQQYNQVAQGGVRMQGPPRTQNPGVQQQNVPRPPQQQQQQRPAPTGPKAPPQPYQAYQQRPQGIVIGGQEPLTSAMLAAAAPQEQKQLLGERIYALIEKLYPGHKDAGKITGMMLEIDNSELIMMLQDSELFRSKVDEAASVLVSAQKQ | not soluble |
| MHGADIKAIVFDLDGTLYEETEHFDYYAERVAKRLREADRRRFWDDYRAVLADCHPLRIGSMYDAKEDLIVWLEEGAVRKAFRWSGEPLTKREIETVYKKPVAVDLDRFFSIGDLWWVSSSIGRHYGLTNEDTYAAFLETREWMMGPEFKMNGAPGLAETLVELHEKAALVLMTNSPEPDSEAILWKLRLADVFHHKIFQAAKPMKTAAHLEAIRARFGVDYRQMLCVGDNIGNDIAPARRLGCRTMLVDTYGLAKQGVADFIVASTSACVPVLRRLL | not soluble |
| MVGGVEELSIEQLASSISTYKEQLEQNFVCGLEFRIGEEKLNVRQLLSEDPRNSEYADMEKELKEVIALTEEVLATAKQNEISLSDAGVSAEATPGSPDLEGAWEKTGLRNDPIHEGKFPVGTKVQAVFSDDGEWYDATIEAHTANGYFVAYDEWGNKEEVDPDNVRPIEQNAIVEAERLAQATKNALKRKIEKAASSDYQTKTLPAKLKIDPNDPEDVKIAKRKKIHAFKSKARFEQLEVVQNKKQNDWQQFQTTKAKTKKVGFFTGRKKESIFKSPEDPFGKVGVTGSGKGLTDFQKREKHLHLKSGNAEGTDE | soluble |
| SGSELIGRLAPRLGLAEPDMLRKAEEYLRLSRVKCVGLSARTTETSSAVMCLDLAASWMKCPLDRAYLIKLSGLNKETYQSCLKSFECLLGLNSNIGIRDLAVQFSCIEAVNMASKILKSYESSLPQTQQVDLDLSRPLFTSAALLSACKILKLKVDKNKMVATSGVKKAIFDRLCKQLEKIGQQVDREPGDVATPPRKRKKIVVEAPAKEMEKVEEMPHKPQKDEDLTQDYEEWKRKILENAASAQKATAE | soluble |
| VKKIGILVLITALLAGIIPKSALAEEPKFNYVDAFAKSILFYEANWCGPDAGNNRIKWRGPCHIEDGKDVGLDLTGGFHDCGDHVKFGLPQCASASTLAWAYHEFSDVFIEKGQDEYMLNILKHFCDYFMKCYPEKNKFYYQVGDGDVDHQYWGPPELQSYDRPTYYVATPENPGSDVAGDTAAALALMYLNYKDRDLEYAEKCLAYAKDIYEFGMTYRGNSKGQSYYLPRDYLDELMWGSLWLYVATGEQKYMDNLEKLMVEKRIGDEAGNSFNDNWTQCWDYVLTGVFIKLATLTDKPLYKQIAEDHLDYWQNRIKSTPGGLKYLDSWGVCKYPAAESMVQLVYYKYTGDKRCLDFAKSQIDYILGDNPKKMSYVVGFGDNYPKFPHHRAASGRLEGPPADETKNDPQRHILYGALVGGADINDEYYDDIDKYVYSETGLDYNAGLVGALAGMSKYFGQGQMPEDTPGIEGEPPVYYADAKIYEENESGITVDLNMYNIVTSPPQYESDLSCRYFVDLSEYAGENIDMSKFVTKVYYSPAGATISELKPYDKEKNIYYVEISFPNPVYARTYVQFCIYYYENKLWDSSNDFSYQGIGDTYKTLENIPIYKNGVLVAGKEPSGAGPVEPTPPPKNYVYGDVNGDGKVNSTDCSIVKRYLLKNIEDFPYEYGKEAGDVNGDGKVNSTDYSLLKRFVLRNIDKFPVEQ | not soluble |
| MSETVSVESSVDSNINQDVNIRATYLGAHELKLAASLLYQAYHDDPVFLDIFKSDKEDYEQRLRGAIREELNAFWQAKQPMIGLYLGEAMVGVACINSPDETLASDRFWHWRLKMLLNAGYFSTKQMMQKEHTVLAAVPLKIFHFLSFIAVHPLHQQHGFGHYLMAAVNTVLDEHPDSEGVAVYATSGKFKEFFKQVDYHTVKEVTVGNVCGSVMVHYRDKEE | soluble |
| MAHHHHHHMRPTCVCAVRAVRMYVPMRVAATGGATPSAASPAGDNASTSSEVRAARRITEAVLSARAKHKLQHRQPSPPTPVPPSVRAKAKAPRSPASDIEEGVVKDTVTVEVQTAARLALSYGKSAFMTHLVHQHDDAHQRPGTVSASEWDQPMVSDAGEPEASVMTASSETCAVLPLRARTPTIPRAAAGTPGLQMAIDKWWRDLTDEARVRWITSTPQGRRALQHATKLAKFRNVSCGQGRSSNSGAHVVPSMESMLTKYKNTLAQPRLPRAAALAPSPKESILRMKLQDEKGASVSPSSKPTTVSSALAGMMHAASENNANRRLLRDRADAVRREEQRKLWHQALVQFLGGASAFTFVHDVKDLQQPRTEAEQAVKREPGAQSGGGAGRATTVAPNTPAATATGNATPEEMADDGAPVAFSDGLLDMCEGLGIRSPRRAYVLSRVLPEVDAANASEGPPLSLAEVQDLAKKCSTEYDELRDDAMRTARETGSASAEDAVRAFEREQLALAVARVQKKLVMFQENLPLLKRCVNVLSK | not soluble |
| MAHHHHHHMGKAAKGRTAMPGKLDTTEADKRTPKSIIIYRGEVGIHVRSLMHEWRNVFLPWSSKKLHGKNKSLKDFLAVAATFSASHLQLFTAPSQGTSLRIMRFFNGPTLSFRVLSFTLHKEIVAKQRRPVAVDRAAWEVAPIVVLNNFTHPDLAHRAEVPLLTATFKALFPSLNVQTIQSSEIQRICLFHYDHVEHVVEVRHYYINARTVGVTKTVKKLLENRRPTKLGTLESIDEVLDREDAWSDTDGEGEEVPLVQPFRQHREQCRVKLQEIGPRMTLQLSKVENGFAGGEVIYHRTEKKTLREVQVNASKVRARKTEKAKRRALQDENVQRKRQKREDKLERKHQRREAAAEAQQANPFEVAHGDGDGDGYAAGDEE | soluble |
| ADFEVHMLNKGKDGAFVFEPASLKVAPGDTVTFIPTDKGHNVETIKGMIPDGAEAFKSKINENYKVTFTAPGVYGVKCTPHYGMGMVGVVQVGDAPANLEAVKGAKNPKKAQERLDAALAALGN | soluble |
| MQSLDIKPTVGLIACCECGVAIEPNPANMCSGCLRSRVDITEGITRQCTIYMCKFCDRYFVPPSAWMRAELESKELLSICLKKLKPMLTKVRLTDACFVWTEAHSKRIKVKITIQKEVFTNTILQQAVVVEFTVHSQLCDDCRRAEAKDFWRACVQVRQRAEFKKTLFYLEQLLLKHSAHKECTGVKPVPTGIDFYFAKQQEARKFVDFLMTVLPCKYHYAQELVSHDTKNNTYDYKHTFCVEIVPICRDNIVCLPKKQAQQYGNMSQIVLCLRVSNVITLIDPNNLQLVDVQATNFWREPFDSLCGPKQLTEFYVLDVEPVNNFERKAGHGYVSKKHELADVWLVRSDQVGMSDAQSLSARTHIGHLLSPGDLVMAFDMKNCNVNNATFDAMNIDNVPDAIIVRKVFDRTRRTAKRQWKLKRLVVDGNIVGNETASVADEFQGFMEDIEEDALMREKINIYKDAEKGPNVDGDDAEDHPDAPTLAEMLDDLKFDDEEMKEAESAEDDEAMQE | not soluble |
| MSLKAKAAFFDIDGTLYREGLISEVFKKLIKYEIIDEEKWYKEVRPEFEKWDNRKGDYDDYLLKMTEIYVDALNGLSKSQVEFIASQVVNQKGERVYTYTRDRIKWHKERGHKIITISGSPIELVRNMAEKYGFDDYRGAEYLLDENDVYTGEVIPMWDSKSKERAVHELEAKYNIDLGESYAYGDTSGDLTMLKMVGNPVCINPTKELVKEILSDEEVKNKIRIIVERKDMIYKISSRCLECDCEFVLEGHHHHHH | soluble |
| MGSDKIHHHHHHMFSYEVIRQFTETEHHLYRYIMDNRDKVMFMRVRELSEVTHVSPASIVRFTRKLGCEGFSEFKVKLKQEATREVKKKTADTVEVLEEFFERTMNRDYDHVLDAAAEIINEADLVVFFGIGTSGILAEYGSRFFSNMKKRTFYIKDPFYPNPGEQFKNKAVMIILSVSGETDQVLEQAQNMQQYGSRIISITNTSHNTLAGLSDVNIPYYVTQEMVDKTNITTQIPVLFLLEAMAKKNYNQEQEE | not soluble |
| EERFGHLLHKVEWVSLGGGIHFTGEDYAVDAFCARLKAFSEKYGVQVYLEPGEAAITNSASLEVTVLDTLYNGKHLAVVDSSIEAHLLDLLIYRLNAKMAPNDGEHTYMVCGKSCLAGDIFGEYQFDRPLAIGDRLSFIDTAGYTMVKKNWFNGLKMPSIVVKQLDGSVEVVREFGFEDYVSSLS | not soluble |
| MENNNGFADMADYLGKLSQVDATKLSIESLTAAANFYMEKLLPNIPKSLLKKKHMVDQVKVNIKDNEVQVAFEDTAFYWRFAENGTVNQKAQHFASGTFEQNKDQIEKIMTQQILDLWKG | soluble |
| MSRGSSAGFDRHITIFSPEGRVYQVEYAFKAINSTNLTAVAVKGADAAVIAVQKRVPDSLIVADTVTSVYQISQSVGCCAIGMIPDAKFQIKRAQGEAASWKYKNGYDMPCELLAKKMADLNQYYTQNAEMRSLGCALLFISYDDEKGPEVYRVDPAGYYRGMKGVSVGVKQLPATSFLEKKIKKKSELTSTEAIELAIEALQTSLGIDVRSKDLEVVVVTKDNSKFTKLTSDQVEHHLNQIANRD | not soluble |
| MAAQKSALILLPPEDAEEIEVIVTGDVLVRGGLQVLYAGSSTEPVKCAKGARIVPDVALKDVKNKTFDIIIIPGGPGCSKLAECPVIGELLKTQVKSGGLIGAICAGPTVLLAHGIVAERVTCHYTVKDKMTEGGYKYLDDNVVISDRVITSKGPGTAFEFALKIVETLEGPEKTNSLLKPLCLAK | not soluble |
| MIIKVIPVGPIAVNCSVVADEKSGEAIIIDPGAEAEKILEAVKDFKVVGIVATHGHIDHVGQVGKLKELFDVPFYMNPLDKFLINDEIWSGFASYIGAVPCPEPDVEISEGDVIRVGDVEFKVLHTPGHTPGLCCLYEEKRRVLIAGDLLFKGSVGRWDLPGGNLVELKKSVKRVLTELPQDTLVICGHYDETTIGQERAFNPFAGELLNG | soluble |
| MKGMKYHDYIWDLGGTLLDNYETSTAAFVETLALYGITQDHDSVYQALKVSTPFAIETFAPNLENFLEKYKENEARELEHPILFEGVSDLLEDISNQGGRHFLVSHRNDQVLEILEKTSIAAYFTEVVTSSSGFKRKPNPESMLYLREKYQISSGLVIGDRPIDIEAGQAAGLDTHLFTSIVNLRQVLDI | soluble |
| NGGTSKTVKFERFEDYNGPKPARAKNMVWQIIPDASTRTNALQSKSVQAIDSVPYLSIDQLKGTHTVESVQGFGLLFAMFNNDKSNPFSDLKNRQAFLYGIDMDKVIKTALLGQATAPTSFLHKEHPQYHEAKVVYSHDAEKAKALFKETGLTKLRMLCTDHDWVKKCTPLIQESLTALGIQVDFTEKKSSDVYNTIDGKPEAYDVVIAPGDPSVFGTDPDLLMRWWYSGDTWTDTRMHWKGTEAYAKLQEVLDAGLAATSESEQKNKWHEALDIISENVPLYPLLHRKAPTAWDASTLVDFKPISLTGLSFSGVGTTQ | not soluble |
